What was measured:
PapD [1] = biological target: T1, PapD (Escherichia coli, UniProt P15319); experiment: PapD-MBP/G interactions in vivo: co-elution of PapD on amylose affinity chromatography; assay type: binding, E. coli
T1 construct: (A) NAME/KEY: mat_; made in house; Lindberg et al. 1989
T1 sequence (P15319 22-239): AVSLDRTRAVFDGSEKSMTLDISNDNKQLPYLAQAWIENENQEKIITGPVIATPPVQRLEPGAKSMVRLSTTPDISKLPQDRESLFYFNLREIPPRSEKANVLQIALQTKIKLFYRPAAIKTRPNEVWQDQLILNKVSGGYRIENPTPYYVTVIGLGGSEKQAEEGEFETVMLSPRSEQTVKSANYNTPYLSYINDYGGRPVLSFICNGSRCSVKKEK
Procedure: Strains carrying MBP or MBP/G fusion gene plasmids were induced in LB broth culture with 1 mM isopropylthiogalactoside (IPTG). Periplasmic extracts were prepared as described (Slonim et al., 1992). One tenth volume of 10×phosphate-buffered saline (PBS, 120 mM NaCl, 2.7 mM KCl, 10 mM Na2HPO4 and 2 mM KH2PO4, pH 7.4) was added to the periplasmic extract. Amylose resin was then added to the periplasmic extracts at a 1:5 ratio. The mixture was rocked at 4° C. overnight and the beads were subsequently washed 5 times with PBS. MBP or MBP/G fusion proteins were eluted with 20 mM maltose in PBS by rocking at 4° C. for an hour. Protein concentrations were determined using the Bio-Rad DC protein assay kit (Bio-Rad Laboratories, Hercules, Calif., USA). The full length fusion protein concentration was further quantitated by the Coomassie stained SDS-PAGE gel with known concentrations of bovine albumin (BSA) as the standards followed by densitometry scanning. […]
The ability of PapD to bind to the MBP/G fusions was investigated using amylose affinity chromatography (Kellermann and Ferenci, 1982). […] Periplasmic extracts from each strain containing the MBP/G proteins and PapD were subjected to amylose affinity chromatography and the eluates analyzed by SDS-PAGE (FIG. 21A) and by western blotting with anti-PapD antisera (FIG. 21B). […]

HB101/pFJ3 [2] = experiment: Hemagglutination titer on co-expression of MBP/G fusions with the pap operon; assay type: cell-based, E. coli
Procedure: HB101/pFJ3 harbouring various MBP/G fusion plasmids was passaged on Trypticase Soy Agar (TSA, Becton Dickinson, Cockeysville, Md., USA) three times to induce P-pili expression. At the last passage, the expression of MBP/G fusions was induced on TSA containing 100 μM IPTG. The cells from different strains were then collected and the HA titers were determined as described (Jacob-Dubuisson et al., 1993b).
PapD is essential for P-pilus assembly (Hultgren et al., 1991). […] The ability of the MBP/G fusions to block pilus formation by inhibiting chaperone-subunit complex formation when co-expressed in trans with the pap operon was tested. Plasmids pMAL-p4, pMAL/G1′-19′, pMAL/G1′-81′ and pMAL/G1′-140′ were transformed into the strain HB101/pFJ3 which contains the pap operon under the control of its own promoter in the vector pACYC184 (Jacob-Dubuisson et al. 1993b). Each MBP/G fusion protein was localized in the periplasm as determined by SDS-PAGE and western blotting with anti-MBP antisera (data not shown). Hemagglutination (HA) assays were performed on the cells co-expressing the pap operon with either MBP (pMAL-p4) or with each of the MBP/G fusions. Co-expression of the MBP/G1′-140′ fusions with the pap operon decreased the HA titer 30 fold compared to the MBP control (see table 3).

HB101/pFJ3 [3] = experiment: Pili preparation and quantitation on co-expression of MBP/G fusions; assay type: cell-based, E. coli
Procedure: The cells obtained from TSA plates were collected. Pili were prepared from the same amounts of cells using the procedure described previously (Jacob-Dubuisson, et al., 1993b). These pili preparations were boiled in Lammeli sample buffer with 4 M urea, then analyzed on Coomassie blue stained SDS polyacrylamide gels. The relative amount of piliation was quantified by densitometric scanning of the PapA bands.

PapD [4] = biological target: T1, PapD; experiment: In vitro complex formation of PapD with MBP/G fusion proteins on silver stained IEF gel; assay type: binding, E. coli
Procedure: (A) PapD was incubated with 1 μg of amylose affinity purified MBP (lane), MBP-G1′-19′ (lane 2), MBP-G1′-81′ (lane 3), or MBP-G1′-140′ (lane 4) and complex formation was evaluated on the silver stained IEF gel. Positions of MBP/G fusions, PapD and the PapD-MBP-G1′-140′ complex are indicated.
The interaction between PapD and MBP/G fusion in vitro was assayed by incubating purified PapD (1 μg) and amylose bead affinity purified MBP/G fusion protein (1 μg) in 4 μl PBS for 30 minutes and then applied to IEF (pI 3-9), followed by silver staining. Another in vitro assay that is more quantitative is the ELISA described below.

PapD [5] = biological target: T1, PapD; experiment: ELISA: PapD binding to immobilized MBP/G fusion proteins; design: species or system E. coli; conditions: 50 pmol PapD
Procedure: (B) Amylose affinity purified NBP/G fusion proteins were coated to wells of microtiter plates. The concentration of the MBP/G proteins in the wells is indicated. Binding of 50 pmol/[…] of PapD to the immobilized proteins was determined by ELISA using anti-PapD antiserum.
Stock solutions of MBP/G fusion proteins in PBS were diluted to 40 pmol/50 μl with PBS. The solutions of the 40 pmol/50 μl MBP/G fusion proteins were serially diluted in PBS and 50 μl of each solution were used to coat the wells of a 96-well Nunc Immunoplate (Inter Med, DK-4000 Roskilde, Denmark) overnight at 4° C. The wells were then washed with PBS and blocked with 200 μl of […] in PBS for 2 hours at 25° C. The plates were washed vigorously three times with PBS and incubated with 50 μl of PapD diluted at 50 pmol PapD in 50 μl 3% BSA-PBS for 45 minutes at 25° C. After three washings with PBS, the wells were incubated with a 1:500 dilution of rabbit anti-PapD antiserum in 3% BSA-PBS for 45 minutes at 25° C. After three washings with PBS, the wells were incubated with a 1:1000 dilution of goat antiserum to rabbit IgG coupled to alkaline phosphatase in 3% BSA-PBS for 45 minutes at 25° C. […] The reaction was incubated for 1 hour in the dark at 25° C. and the absorbance at 405 nm was read.

PapD [6] = biological target: T1, PapD; experiment: ELISA: PapD binding to immobilized second site peptides of PapG; design: species or system E. coli; conditions: peptide coated on wells, 200 pmol PapD
Procedure: Four synthetic peptides overlapping the PapG region from residue 156′ to 120′ (indicated in FIG. 20) were coated to wells of microtiter plates. The concentration of each peptide in the wells is indicated. Binding of 200 pmol/[…] of PapD to the immobilized peptide was determined by ELISA using anti-PapD antiserum.
For assaying the second site peptides, all the peptides were dissolved in dimethyl sulfoxide (DMSO, Sigma, St. Louis, Mo., USA) to a final concentration 2 mM. The stock solutions were diluted to a proper concentration in PBS and coated overnight on microtiter wells at 4° C. All the peptide solutions were adjusted to the same DMSO concentration. The subsequent steps followed the procedure described above.

PapD [7] = biological target: T1, PapD; experiment: PapD complex formation with PapG truncates (acidic native gel, western blotting); assay type: binding, E. coli; conditions: co-expressed in KS474
Procedure: Periplasm containing PapD and PapG, PapG2 or PapG3 (lane 2, 3 and 4 respectively) were subjected to Gal α(1-4) Gal chromatography and eth eluates were analyzed on acidic native gel electrophoresis following western blotting using anti-PapD (A) and anti-PapG (B) antisera. Purified PapD-PapG complex was loaded-in lane 1.
PapD and the PapG-truncates were co-expressed in KS474, the truncates were induced at OD600 0.6 with 0.5 mM IPTG and PapD under the control of the arabinose promoter was induced with 0.2% arabinose. After one hour induction, periplasmic extracts were prepared and rocked with Gal α(1-4) Gal beads overnight at 4° C. and eluted with 15 μg/ml Gal α(1-4) Gal-TMSET solution as described previously (Hultgren et al., 1989; Kuehn et al., 1991). The eluates were analyzed by acidic native gel eletrophoresis (Striker et al., 1994) followed by western blotting using anti-PapD and anti-PapG antiserum.

G1′-19′WT peptide = biological target: T2, G1′-19′WT peptide (Escherichia coli, UniProt P13720); experiment: Native polyacrylamide gel mobility shift of PapD (wild type and mutants) with G1′-19′WT peptide; assay type: binding, E. coli; conditions: native-PAGE assay
T2 construct: G1′-19′ denotes the 19 C-terminal amino acid residues of PapG; made in house; host or cells: synthetic peptide
Excerpt: The ability of the mutant chaperones to bind pilus subunits and modulate pilus assembly in vivo was correlated to their ability to bind to the G1′-19′WT peptide and to PapG in vitro. […] Similarly, mutations in Arg-8 and Lys-112 abolished the ability of PapD to bind to PapG and reconstitute the PapD-PapG complex in vitro (FIG. 7) and to bind to pilus subunits and mediate pilus assembly in vivo (cf. table 2).

MBP/G1′-19′: fusion of maltose binding protein and COOH-terminal residues 1′-19′ of PapG
interaction of PapD with MBP/G protein in vivo (co-elution) (PapD [1]; co-expressed, SDS-PAGE and western blot of eluates): only weakly
stable complexes with PapD in the eluates (PapD [1]; silver stained IEF gel): not possible to detect stable complexes
effect on hemagglutination (HB101/pFJ3 [2]; co-expression in strains producing P pili): only weak effects on the HA titer
HA titer (HB101/pFJ3 [2]; highest dilution of cell suspension yielding detectable HA, co-expression with pap operon): 64
reduction of the amount of pili compared to MBP alone (HB101/pFJ3 [3]; co-expression with pap operon): about 50%
Pilation percentage (HB101/pFJ3 [3]; densitometry of PapA bands, control HB101/pFJ3/pMAL-p4 = 100%): 50%
inhibition of pilus assembly (HB101/pFJ3 [3]; expression in cells producing P pili): weak inhibitors
complex formation with PapD in vitro (PapD [4]): no complexes
PapD binding to immobilized fusion protein (PapD [5]): weakly

G125′-140′: peptide of C-terminal amino acid residues 125′ to 140′ of PapG, SEQ ID NO: 20 (DQIKQLPATNTLMLSF)
binding to PapD in ELISA (PapD [6]): bound to PapD

B1: full-length PapG: P pilus tip adhesin PapG (protein)
chain: GWHNVMFYAFNDYLTTNAGNVKVIDQPQLYIPWNTGSATATYYSCSGPEFASGVYFQEYLAWMVVPKHVYTNEGFNIFLDVQSKYGWSMENENDKDFYFFVNGYEWDTWTNNGARICFYPGNMKQLNNKFNDLVFRVLLPVDLPKGHYNFPVRYIRGIQHHYYDLWQDHYKMPYDQIKQLPATNTLMLSFDNVGGCQPSTQVLNIDHGSIVIDRANGNIASQTLSIYCDVPVSVKISLLRNTPPIYNNNKFSVGLGNGWDSIISLDGVEQSEEILRWYTAGSKTVKIESRLYGEEGKRKPGELSGSMTMVLSFP
complex formation with PapD (PapD [7]): formed a complex

B2: wild type PapD: periplasmic chaperone PapD of E. coli, wild type (protein, UniProt P15319 22-239, looked up)
Chaperone protein PapD: AVSLDRTRAVFDGSEKSMTLDISNDNKQLPYLAQAWIENENQEKIITGPVIATPPVQRLEPGAKSMVRLSTTPDISKLPQDRESLFYFNLREIPPRSEKANVLQIALQTKIKLFYRPAAIKTRPNEVWQDQLILNKVSGGYRIENPTPYYVTVIGLGGSEKQAEEGEFETVMLSPRSEQTVKSANYNTPYLSYINDYGGRPVLSFICNGSRCSVKKEK
mobility shift on incubation with G1′-19′WT peptide (G1′-19′WT peptide): cause a mobility shift

Source: US6596504B2, “Treatment of prophylaxis of diseases caused by pilus-forming bacteria” (Washington University, priority 1993, dated 2003)
